The assay has as its target full-length Brr2, purified, Protein A tag cleaved off (S. cerevisiae, UniProt P32639 1-2163). Briefly: native gel or EMSA. For orientation: Mobility shift assays separate free from complexed probe on a gel.

Data on one molecule can be found in publication PMC2743687 (Nature structural & molecular biology, 2009).

Chain of full-length Brr2, purified, Protein A tag cleaved off (P32639 whole entry): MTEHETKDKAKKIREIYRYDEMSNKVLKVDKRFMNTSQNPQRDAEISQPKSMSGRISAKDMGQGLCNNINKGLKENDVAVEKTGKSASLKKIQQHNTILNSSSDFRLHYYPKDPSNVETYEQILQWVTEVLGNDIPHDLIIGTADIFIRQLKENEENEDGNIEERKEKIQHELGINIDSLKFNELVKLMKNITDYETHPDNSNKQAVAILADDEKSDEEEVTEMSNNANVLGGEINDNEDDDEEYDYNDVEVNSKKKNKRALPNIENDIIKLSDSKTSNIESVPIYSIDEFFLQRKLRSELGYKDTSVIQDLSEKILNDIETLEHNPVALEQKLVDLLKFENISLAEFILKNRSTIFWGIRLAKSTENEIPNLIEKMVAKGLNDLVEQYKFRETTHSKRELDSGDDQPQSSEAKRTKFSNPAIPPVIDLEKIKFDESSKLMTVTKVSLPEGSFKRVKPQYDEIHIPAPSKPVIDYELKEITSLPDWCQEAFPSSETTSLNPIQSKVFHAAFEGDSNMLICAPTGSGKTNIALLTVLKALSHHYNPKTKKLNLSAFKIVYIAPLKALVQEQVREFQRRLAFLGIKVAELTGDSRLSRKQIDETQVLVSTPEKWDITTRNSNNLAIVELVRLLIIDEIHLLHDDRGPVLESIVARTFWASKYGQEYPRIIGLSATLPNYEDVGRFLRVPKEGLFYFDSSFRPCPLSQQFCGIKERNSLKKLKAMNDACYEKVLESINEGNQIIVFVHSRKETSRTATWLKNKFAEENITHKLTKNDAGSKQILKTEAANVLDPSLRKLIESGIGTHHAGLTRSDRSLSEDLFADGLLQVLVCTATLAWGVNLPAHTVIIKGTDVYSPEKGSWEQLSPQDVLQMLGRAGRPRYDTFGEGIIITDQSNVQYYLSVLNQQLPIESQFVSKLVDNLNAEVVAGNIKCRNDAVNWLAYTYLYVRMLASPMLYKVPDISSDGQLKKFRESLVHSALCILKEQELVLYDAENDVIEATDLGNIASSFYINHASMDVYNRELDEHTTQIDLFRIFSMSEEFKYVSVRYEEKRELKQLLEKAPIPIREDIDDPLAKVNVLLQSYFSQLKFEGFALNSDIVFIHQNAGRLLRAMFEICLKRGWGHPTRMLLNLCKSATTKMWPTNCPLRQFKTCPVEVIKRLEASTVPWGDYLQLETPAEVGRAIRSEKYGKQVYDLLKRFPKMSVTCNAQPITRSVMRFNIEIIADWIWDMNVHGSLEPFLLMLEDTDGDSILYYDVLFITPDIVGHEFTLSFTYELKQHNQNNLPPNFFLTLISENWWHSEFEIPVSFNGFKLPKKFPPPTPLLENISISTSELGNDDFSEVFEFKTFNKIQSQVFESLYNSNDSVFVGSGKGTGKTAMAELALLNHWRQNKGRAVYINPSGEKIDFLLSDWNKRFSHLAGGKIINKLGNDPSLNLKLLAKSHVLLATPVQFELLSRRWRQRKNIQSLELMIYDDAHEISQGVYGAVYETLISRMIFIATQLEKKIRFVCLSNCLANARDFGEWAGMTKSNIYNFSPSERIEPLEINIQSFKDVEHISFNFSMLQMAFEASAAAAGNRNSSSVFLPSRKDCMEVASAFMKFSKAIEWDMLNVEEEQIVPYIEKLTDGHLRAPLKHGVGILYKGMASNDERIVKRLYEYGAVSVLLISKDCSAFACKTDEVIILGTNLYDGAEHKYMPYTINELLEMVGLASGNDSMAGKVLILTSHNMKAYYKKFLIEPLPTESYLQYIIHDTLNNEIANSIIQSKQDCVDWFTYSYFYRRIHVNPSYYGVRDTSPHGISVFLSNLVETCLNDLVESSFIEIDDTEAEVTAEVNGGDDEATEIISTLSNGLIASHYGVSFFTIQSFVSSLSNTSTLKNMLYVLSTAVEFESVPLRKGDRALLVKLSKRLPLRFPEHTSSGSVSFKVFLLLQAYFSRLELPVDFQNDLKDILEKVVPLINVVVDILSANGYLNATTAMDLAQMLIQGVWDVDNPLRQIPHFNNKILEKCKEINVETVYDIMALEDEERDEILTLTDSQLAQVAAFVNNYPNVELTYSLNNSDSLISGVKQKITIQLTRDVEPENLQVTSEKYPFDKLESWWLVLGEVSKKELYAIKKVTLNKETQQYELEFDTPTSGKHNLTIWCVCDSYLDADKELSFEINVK

B1: C-terminal region of Prp8 (Prp8-CTR, residues 1822–2395) (domain or fragment)
chain: GLQIYQSSVQEPFLNSSNYAELFNNDIKLFVDDTNVYRVTVHKTFEGNVATKAINGCIFTLNPKTGHLFLKIIHTSVWAGQKRLSQLAKWKTAEEVSALVRSLPKEEQPKQIIVTRKAMLDPLEVHMLDFPNIAIRPTELRLPFSAAMSIDKLSDVVMKATEPQMVLFNIYDDWLDRISSYTAFSRLTLLLRALKTNEESAKMILLSDPTITIKSYHLWPSFTDEQWITIESQMRDLILTEYGRKYNVNISALTQTEIKDIILGQNIKAPSVKRQKMAELEAARSEKQNDEEAAGASTVMKTKTINAQGEEIVVVASADYESQTFSSKNEWRKSAIANTLLYLRLKNIYVSADDFVEEQNVYVLPKNLLKKFIEISDVKIQVAAFIYGMSAKDHPKVKEIKTVVLVPQLGHVGSVQISNIPDIGDLPDTEGLELLGWIHTQTEELKFMAASEVATHSKLFADKKRDCIDISIFSTPGSVSLSAYNLTDEGYQWGEENKDIMNVLSEGFEPTFSTHAQLLLSDRITGNFIIPSGNVWNYTFMGTAFNQEGDYNFKYGIPLEFYNEMHRPVHFLQF
For the molecule B1, the binding result is “binds”.
